Like-named read-outs stand apart in the source and are kept apart here.

Assay [1] concerns the target T1, human Kv1.1 (huKv1.1) (Homo sapiens, UniProt Q09470).
T1 construct: expressed in transfected cells; host or cells: Freestyle CHO-S
The assay can be described thus: QPatch automated patch-clamp, CHO-S cells expressing huKv1.1 (Examples 20-21). It counts as cell-based. How it is done:
1. The effect of these KnotBodies on cells expressing human Kv1.1 (huKv1.1) and Kv1.3 (huKv1.3) channels was assessed using QPatch automated patch-clamp platform (Sophion).
To generate huKv1.1 expressing cells, Freestyle CHO-S cells (Cat. no. R80007, Life Technologies, California, USA) were transfected with pINT50-Tr plasmid encoding huKv1.1 gene using the MaxCyte STX (MaxCyte) transfection system. In pINT50-Tr plasmid, huKv1.1 gene is under the control of a CMV promoter. 64 µg of the plasmid DNA were added to 400 µl of Freestyle CHO-S cells (at a density of 1 × 10^8 cells/ml) in Electroporation Buffer (GE Healthcare Life Sciences, Cat. no. EPB1) in an OC-400 processing assembly (MaxCyte). Following electroporation, the cells were transferred to a well of a 24-well plate containing 200 U/ml DNAse I (Sigma, D4263) and incubated for 20 minutes at 37° C. and 5% CO2. The cells were then transferred into a 100 ml shaker flask containing 20 ml of CD Opticho Media (Thermo Fisher Scientific, Cat.No 12681-011,) supplemented with 8 mM L-Glut (Thermo Fisher Scientific, cat. no. 25030-024). The cells were incubated for 24 hours at 37° C. and 5% CO2 (and 75% humidity and shaking at 800 rpm) prior to testing using automated patch clamp electrophysiology.
(§1) For the testing of Kv1.1 and Kv1.3, CHO-S expressing huKv1.1 (described above) or CHO cells stably expressing huKv1.3 (Charles River Lab) were analysed using the QPatch electrophysiology assay in the presence or absence of the KnotBody fusions. Internal and external physiological solutions were freshly prepared prior to the assay. The extracellular solution contained 145 mM NaCl, 4 mM KC1, 2 mM CaC12, 1 mM MgC12, 10 mM HEPES and 10 mM glucose; the pH was adjusted to 7.4 with NaOH; the osmolarity was ~ 305 mOsm/L. The intracellular solution contained: KF (120 mM), KC1 (20 mM), HEPES (10 mM) EGTA (10 mM); the pH was adjusted to 7.2 with KOH; osmolarity was ~ 300 mOsm/L.
(§2) A series of depolarising voltage (channel activating) pulses were used to monitor the channel currents upon adding control (extracellular solution) to define a control baseline of current activity. To these measured control currents four, ascending concentrations of KnotBodies (including previously described KB_A12_ShK and KB_A12_KTX described in Example 8) or parental antibody isotypes (control molecules) were applied to the external bathing solution. KnotBodies KB_A12 and KB_A07 (EETI-II fusions) were used as isotype controls for the testing. From a holding voltage of -80 mV a depolarising, activating voltage pulses of +30 were applied for 300 ms, every 10 seconds. The elicited, maximum outward current values measured during the activating step for each solution exchange period, averaged (n = 3 - 6 for each concentration applied) and plotted as concentration-response curves (see FIG. 33). From these concentration-response curves IC50 values were calculated (see Table E20).
(§3) For the testing of Kv1.1 and Kv1.3, CHO-S expressing huKv1.1 (see Example 20 and below) or CHO cells stably expressing huKv1.3 (Charles River Lab) were analysed using the QPatch electrophysiology assay in the presence or absence of the KnotBody fusions - see details in Examples 19 and 20.
In addition to the CHO-S transiently expressing huKv1.1 (described in Example 20), CHO-S cells with poly-clonal stable expression of huKv1.1 cells were also made and used in the QPatch electrophysiology assay. To generate the polyclonal stable huKv1.1 cells from the transiently expressing cells described in Example 20, after a 24 hour incubation period the selection antibiotic Puromycin (catalogue no. A1 1138-03, Life Technologies, California, USA) was added to culture media. Then, for the first 14 days puromycin was at 10 µg ml-1 media; at days 15-28 puromycin was at 20 µg ml-1 media. Cell cultures were seeded at 2.5 x 10^5 cells ml^-1 into fresh culture media and puromycin twice per week through this selection growth period. […]
On the technique in general: In patch-clamp work, channel activity is measured electrically.

Assay [2] concerns the target T2, human Kv1.3 (huKv1.3) (Homo sapiens, UniProt P22001).
T2 construct: host or cells: CHO
Kind of assay: QPatch automated patch-clamp, CHO cells stably expressing human Kv1.3 (Examples 19-21). Format: cell-based. How it is done: The effect of these KnotBodies on cells expressing human Kv1.3 (huKv1.3) channel was assessed using the QPatch automated patch-clamp platform (Sophion, Ballerup, Denmark). For the testing of Kv1.3 ion channel currents, CHO cells stably expressing human Kv1.3 (GenBank accession number NM_002232.2; cell line catalogue number CT6133, Charles River Discovery, Cleveland, USA) were subjected to a QPatch electrophysiology assay in the presence or absence of the KnotBody fusions or the antibody isotypes (negative controls). Internal and external physiological solutions were freshly prepared prior to the assay. The extracellular solution contained 145 mM NaCl, 4 mM KC1, 2 mM CaC12, 1 mM MgC12, 10 mM HEPES and 10 mM glucose; the pH was adjusted to 7.4 with NaOH; the osmolarity was ~ 305 mOsm/L. The intracellular solution contained: KF (120 mM), KC1 (20 mM), HEPES (10 mM) EGTA (10 mM); the pH was adjusted to 7.2 with KOH; osmolarity was ~ 300 mOsm/L.
as §2, with “(including” for “(including previously described”, “KB_A12_KTX as previously” for “KB_A12_KTX”, “+30 mV” for “+30”, “32).” for “33).”, “calculated.” for “calculated (see Table E20).”
as §1, §2, §3

The mark [3] stands for this setting: four-point curves of FIG. 33, Table E20.
The mark [4] stands for this setting: Kv1.1 IC50 over Kv1.3 IC50, Table E20.
Where [5] appears, read: four-point curves of FIG. 33, Table E20, read-out: Kv1.3 IC50.
[6] abbreviates: huKv1.3, four-point curves of FIG. 32, Table E19, read-out: IC50.

T1 sequence (Q09470 whole entry): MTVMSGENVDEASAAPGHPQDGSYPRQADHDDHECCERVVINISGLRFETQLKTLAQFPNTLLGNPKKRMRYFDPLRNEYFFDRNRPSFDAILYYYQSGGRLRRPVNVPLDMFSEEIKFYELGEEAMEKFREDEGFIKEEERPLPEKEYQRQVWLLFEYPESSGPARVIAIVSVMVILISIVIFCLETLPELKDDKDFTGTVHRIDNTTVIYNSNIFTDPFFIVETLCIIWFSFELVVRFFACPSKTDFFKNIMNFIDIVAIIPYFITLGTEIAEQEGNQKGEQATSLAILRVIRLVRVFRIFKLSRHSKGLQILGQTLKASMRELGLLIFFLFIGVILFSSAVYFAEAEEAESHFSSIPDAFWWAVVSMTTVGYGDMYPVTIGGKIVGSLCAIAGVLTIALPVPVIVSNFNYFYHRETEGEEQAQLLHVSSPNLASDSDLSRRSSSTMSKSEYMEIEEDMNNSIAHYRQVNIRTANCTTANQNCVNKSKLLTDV
T2 sequence (P22001 whole entry): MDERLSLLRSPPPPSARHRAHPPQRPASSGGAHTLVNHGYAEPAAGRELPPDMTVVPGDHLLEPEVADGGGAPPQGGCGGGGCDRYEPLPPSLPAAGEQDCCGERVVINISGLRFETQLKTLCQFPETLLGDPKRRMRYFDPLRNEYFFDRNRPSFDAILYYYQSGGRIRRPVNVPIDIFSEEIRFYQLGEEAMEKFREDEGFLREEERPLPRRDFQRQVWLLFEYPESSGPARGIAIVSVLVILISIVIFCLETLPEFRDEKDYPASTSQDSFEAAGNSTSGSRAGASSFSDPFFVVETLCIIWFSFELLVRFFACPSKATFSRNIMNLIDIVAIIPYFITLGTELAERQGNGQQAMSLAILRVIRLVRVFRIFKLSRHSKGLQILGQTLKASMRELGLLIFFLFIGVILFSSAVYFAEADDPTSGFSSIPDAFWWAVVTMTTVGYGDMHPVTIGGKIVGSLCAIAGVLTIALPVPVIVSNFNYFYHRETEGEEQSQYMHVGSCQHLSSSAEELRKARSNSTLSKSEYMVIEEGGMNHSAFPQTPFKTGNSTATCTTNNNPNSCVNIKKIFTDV

B1: KB_A12_Odk2 short: truncated OdK2 in VL CDR2 of KB_A12, IgG (antibody, V domains shown)
VH: EVQLVESGGGLVRPGGSLRLSCAASGFTFSSYAMSWVRQAPGKGLEWVSAISGSGGSTYYADSVKGRFTISRDNTKNSLYLQMTSLRADDTAFYYCVKDFGPGYGTGWFDYWGPGTLVTVSS
VL: QSVLTQPPSVSEAPRQRVTITCSGSSSNIGNNAVNWYQQLPGKAPKLLIYAAGRVKCRGSPQCIQPCKDAGMRFGKCMNGKCHCTPKANSGVSDRFSAAKSGTSASLAINGLRSEDEADYYCAAWDDSLNGYVFGTGTKLTVLG
A word on the IC50: it is the concentration at which inhibition is half-maximal. As to B1, the IC50 in assay [1] (setting [3]) was 380 nM; in assay [2] (setting [5]), 49 nM; in assay [2] (setting [6]), 64 nM. This molecule showed a Fold difference in assay [2] (setting [4]) of 8.

B2: KB_A12_HsTx1 (antibody, V domains shown)
VH: EVQLVESGGGLVRPGGSLRLSCAASGFTFSSYAMSWVRQAPGKGLEWVSAISGSGGSTYYADSVKGRFTISRDNTKNSLYLQMTSLRADDTAFYYCVKDFGPGYGTGWFDYWGPGTLVTVSS
VL: QSVLTQPPSVSEAPRQRVTITCSGSSSNIGNNAVNWYQQLPGKAPKLLIYAAGRASCRTPKDCADPCRKETGCPYGKCMNRKCKCNRCANSGVSDRFSAAKSGTSASLAINGLRSEDEADYYCAAWDDSLNGYVFGTGTKLTVLG
Regarding B2, the IC50 in assay [1] (setting [3]) is 650 nM; in assay [2] (setting [5]), 15 nM; in assay [2] (setting [6]), 3.9 nM. Also, the Fold difference in assay [2] (setting [4]) came out at 43.

B3: KB_A12_AnTx 2 M: AnTx N17A/F32T in VL CDR2 of KB_A12, IgG (antibody, V domains shown)
VH: EVQLVESGGGLVRPGGSLRLSCAASGFTFSSYAMSWVRQAPGKGLEWVSAISGSGGSTYYADSVKGRFTISRDNTKNSLYLQMTSLRADDTAFYYCVKDFGPGYGTGWFDYWGPGTLVTVSS
VL: QSVLTQPPSVSEAPRQRVTITCSGSSSNIGNNAVNWYQQLPGKAPKLLIYAAGRQKECTGPQHCTNFCRKAKCTHGKCMNRKCKCTNCKANSGVSDRFSAAKSGTSASLAINGLRSEDEADYYCAAWDDSLNGYVFGTGTKLTVLG
Consider B3, for which the IC50 in assay [1] (setting [3]) was determined as 10300 nM; in assay [2] (setting [5]), 110 nM; in assay [2] (setting [6]) it was 85 nM. In assay [2] (setting [4]), this molecule showed a Fold difference of 94.

B4: KB_A12_Odk2: OdK2 in VL CDR2 of KB_A12, IgG (antibody, V domains shown)
VH: EVQLVESGGGLVRPGGSLRLSCAASGFTFSSYAMSWVRQAPGKGLEWVSAISGSGGSTYYADSVKGRFTISRDNTKNSLYLQMTSLRADDTAFYYCVKDFGPGYGTGWFDYWGPGTLVTVSS
VL: QSVLTQPPSVSEAPRQRVTITCSGSSSNIGNNAVNWYQQLPGKAPKLLIYAAGRGVPTDVKCRGSPQCIQPCKDAGMRFGKCMNGKCHCTPKANSGVSDRFSAAKSGTSASLAINGLRSEDEADYYCAAWDDSLNGYVFGTGTKLTVLG
For the molecule B4, the IC50 in assay [1] (setting [3]) was 2750 nM; in assay [2] (setting [5]), 457 nM; in assay [2] (setting [6]), 222 nM. This molecule showed a Fold difference in assay [2] (setting [4]) of 6.

B5: KB_A12_ADWX1 short: truncated ADWX-1 in VL CDR2 of KB_A12, IgG (antibody, V domains shown)
VH: EVQLVESGGGLVRPGGSLRLSCAASGFTFSSYAMSWVRQAPGKGLEWVSAISGSGGSTYYADSVKGRFTISRDNTKNSLYLQMTSLRADDTAFYYCVKDFGPGYGTGWFDYWGPGTLVTVSS
VL: QSVLTQPPSVSEAPRQRVTITCSGSSSNIGNNAVNWYQQLPGKAPKLLIYAAGRVKCKHSRQCLKPCKDAGMRFGKCTNGKCHCTPKANSGVSDRFSAAKSGTSASLAINGLRSEDEADYYCAAWDDSLNGYVFGTGTKLTVLG
Regarding B5, the figures for the IC50 in assay [1] (setting [3]), in assay [2] (setting [5]) and in assay [2] (setting [6]) were 1400 nM, 251 nM and 170 nM, respectively. The Fold difference in assay [2] (setting [4]) amounted to 6.

B6: KB_A12_Vm24: Vm24 in VL CDR2 of KB_A12, IgG (antibody, V domains shown)
VH: EVQLVESGGGLVRPGGSLRLSCAASGFTFSSYAMSWVRQAPGKGLEWVSAISGSGGSTYYADSVKGRFTISRDNTKNSLYLQMTSLRADDTAFYYCVKDFGPGYGTGWFDYWGPGTLVTVSS
VL: QSVLTQPPSVSEAPRQRVTITCSGSSSNIGNNAVNWYQQLPGKAPKLLIYAAGRAAAISCVGSPECPPKCRAQGCKNGKCMNRKCKCYYCANSGVSDRFSAAKSGTSASLAINGLRSEDEADYYCAAWDDSLNGYVFGTGTKLTVLG
Consider B6, for which the IC50 was 1220 nM in assay [1] (setting [3]), 12 nM in assay [2] (setting [5]) and 16 nM in assay [2] (setting [6]). The Fold difference in assay [2] (setting [4]) was 102.

B7: KB_A12_HsTx1 R14A (antibody, V domains shown)
VH: EVQLVESGGGLVRPGGSLRLSCAASGFTFSSYAMSWVRQAPGKGLEWVSAISGSGGSTYYADSVKGRFTISRDNTKNSLYLQMTSLRADDTAFYYCVKDFGPGYGTGWFDYWGPGTLVTVSS
VL: QSVLTQPPSVSEAPRQRVTITCSGSSSNIGNNAVNWYQQLPGKAPKLLIYAAGRASCRTPKDCADPCAKETGCPYGKCMNRKCKCNRCANSGVSDRFSAAKSGTSASLAINGLRSEDEADYYCAAWDDSLNGYVFGTGTKLTVLG
Take B7: the 50% inhibitory concentration (IC50) was determined as 2990 nM in assay [1] (Table E21) and 0.9 nM in assay [2] (Table E21, read-out: Kvl.3 IC50). Also, the Fold difference in assay [2] (Kv1.1 IC50 over Kv1.3 IC50, Table E21) is >3500.

(Values after patent publication US20230331827A1, “POTASSIUM CHANNEL INHIBITORS” (priority 2017, published 2023).)
